Key:
[1] = molecular target: HD1 (MBP-HD1);GHD8 (His-GHD8, NF-YB);OsHAP5b (His-HAP5b, NF-YC) (Oryza sativa (rice);Oryza sativa …, UniProt Q9FDX8;Q0J7P4;Q655V5 1-395;1-297;1-250, ||); assay: EMSA; considerably stronger signal than HD1 alone; 50x/100x unlabeled F1 competitor; 5 mM Tris pH 7.5, 25 mM KCl, 0.5 mM DTT, 5 mM MgCl2, 2.5% glycerol, 0.05% NP-40, 50 ng/uL poly(dI-dC), room temperature 20 min, 5% polyacrylamide gel; settings: protein: recombinant;recombinant;recombinant; tags: MBP (pMAL-c2X); copies: 1;1;1; label: 3'-biotin; blunt
[2] = molecular target: HD1 (MBP-HD1);GHD8 (His-GHD8, NF-YB) (Oryza sativa (rice);Oryza sativa (rice), UniProt Q9FDX8;Q0J7P4 1-395;1-297, |); assay: EMSA; 5 mM Tris pH 7.5, 25 mM KCl, 0.5 mM DTT, 5 mM MgCl2, 2.5% glycerol, 0.05% NP-40, 50 ng/uL poly(dI-dC), room temperature 20 min, 5% polyacrylamide gel; settings: protein: recombinant;recombinant; tags: MBP (pMAL-c2X; text says MBP 'at the down-stream');N-terminal thioredoxin-His (pET-32); copies: 1;1; label: 3'-biotin; blunt
HD1 (MBP-HD1);GHD8 (His-GHD8, NF-YB), sequence (Q9FDX8 whole entry, chain 1 of 2): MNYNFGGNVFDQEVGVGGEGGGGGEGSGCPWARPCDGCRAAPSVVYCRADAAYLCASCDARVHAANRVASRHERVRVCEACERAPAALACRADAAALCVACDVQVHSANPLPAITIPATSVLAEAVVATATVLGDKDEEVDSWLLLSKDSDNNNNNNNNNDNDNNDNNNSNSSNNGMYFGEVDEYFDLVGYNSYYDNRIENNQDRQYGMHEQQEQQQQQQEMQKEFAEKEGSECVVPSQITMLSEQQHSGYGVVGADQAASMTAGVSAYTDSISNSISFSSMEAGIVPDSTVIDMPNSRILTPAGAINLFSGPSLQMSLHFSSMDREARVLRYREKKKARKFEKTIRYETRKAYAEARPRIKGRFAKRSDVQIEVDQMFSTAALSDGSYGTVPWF
HD1 (MBP-HD1);GHD8 (His-GHD8, NF-YB), sequence (Q0J7P4 whole entry, chain 2 of 2): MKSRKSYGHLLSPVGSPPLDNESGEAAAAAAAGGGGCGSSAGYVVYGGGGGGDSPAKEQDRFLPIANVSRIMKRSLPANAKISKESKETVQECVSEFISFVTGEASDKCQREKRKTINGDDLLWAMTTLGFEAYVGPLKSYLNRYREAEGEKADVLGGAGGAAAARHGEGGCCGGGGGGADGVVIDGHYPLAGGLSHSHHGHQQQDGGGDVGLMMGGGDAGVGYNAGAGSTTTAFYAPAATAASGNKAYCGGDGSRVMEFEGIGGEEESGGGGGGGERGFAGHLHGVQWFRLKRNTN

HD1 (MBP-HD1);GHD8 (His-GHD8, NF-YB);OsHAP5b (His-HAP5b, NF-YC), sequence (Q9FDX8 whole entry, chain 1 of 3): as the sequence (Q9FDX8 whole entry, chain 1 of 2) above
HD1 (MBP-HD1);GHD8 (His-GHD8, NF-YB);OsHAP5b (His-HAP5b, NF-YC), sequence (Q0J7P4 whole entry, chain 2 of 3): as the sequence (Q0J7P4 whole entry, chain 2 of 2) above
HD1 (MBP-HD1);GHD8 (His-GHD8, NF-YB);OsHAP5b (His-HAP5b, NF-YC), sequence (Q655V5 whole entry, chain 3 of 3): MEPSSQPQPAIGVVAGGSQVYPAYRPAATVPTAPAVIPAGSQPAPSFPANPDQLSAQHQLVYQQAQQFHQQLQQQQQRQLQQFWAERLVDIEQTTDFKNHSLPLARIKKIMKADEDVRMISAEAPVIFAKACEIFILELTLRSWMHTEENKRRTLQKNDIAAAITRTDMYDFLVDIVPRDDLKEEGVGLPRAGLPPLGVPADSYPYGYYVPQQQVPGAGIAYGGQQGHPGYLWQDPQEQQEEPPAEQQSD

B1: F1 (dsDNA)
DNA 1: ATCTGGTTGCAATGGGGATGGCCAATGAGGAGTCG
DNA 2: CGACTCCTCATTGGCCATCCCCATTGCAACCAGAT
binding result [1]: binds
binding result [2]: binds

— article PMC6825352, “Ghd8 controls rice photoperiod sensitivity by forming a complex that interacts with Ghd7”
